We go through 3 proteins from patent US20230045284.

Data set [1] has as its target Recombinant 6xHis-tagged KRas (rKRas; KRas4B NP_004976.2), P01116.
For data set [2], the target named is T1, GST-Rit2, Q99578.
T1 chain: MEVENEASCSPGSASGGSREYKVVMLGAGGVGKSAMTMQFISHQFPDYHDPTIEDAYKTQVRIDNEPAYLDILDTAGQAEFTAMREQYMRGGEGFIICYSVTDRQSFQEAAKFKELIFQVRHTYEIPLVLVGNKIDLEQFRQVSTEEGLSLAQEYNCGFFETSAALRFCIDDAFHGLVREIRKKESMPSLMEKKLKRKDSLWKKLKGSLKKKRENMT

Data set [3] deals with GST-HRas (rGST-HRas), P01112.
Data set [4] has as its target Recombinant 6xHis-tagged NRas (rNRas; NP_002515.1), P01111.
Data set [5] has as its target Recombinant 6xHis-tagged HRas (rHRas; NP_001123914.1), P01112.

Chain of Recombinant 6xHis-tagged HRas (rHRas; NP_001123914.1), P01112 (P01112 whole entry, looked up): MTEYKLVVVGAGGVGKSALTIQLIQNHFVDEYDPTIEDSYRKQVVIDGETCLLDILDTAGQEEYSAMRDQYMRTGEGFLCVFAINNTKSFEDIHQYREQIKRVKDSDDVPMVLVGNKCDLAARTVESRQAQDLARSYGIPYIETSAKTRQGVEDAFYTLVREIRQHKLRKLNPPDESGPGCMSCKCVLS
Chain of GST-HRas (rGST-HRas), P01112 (P01112 whole entry, looked up): as above
Chain of Recombinant 6xHis-tagged NRas (rNRas; NP_002515.1), P01111 (P01111 whole entry): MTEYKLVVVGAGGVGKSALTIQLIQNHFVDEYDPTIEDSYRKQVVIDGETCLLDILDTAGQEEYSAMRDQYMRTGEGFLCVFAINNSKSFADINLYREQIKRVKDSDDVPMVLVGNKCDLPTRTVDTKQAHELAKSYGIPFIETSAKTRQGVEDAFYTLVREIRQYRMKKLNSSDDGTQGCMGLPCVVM

B1: Recombinant 6xHis-tagged DUF5Vv (rDUF5Vv; V. vulnificus CMCP6 MARTXVv Q3596-L4089) (protein)
chain: QELKERAKVFAKPIGASYQGILDQLDLVHQAKGRDQIAASFELNKKINDYIAEHPTSGRNQALTQLKEQVTSALFIGKMQVAQAGIDAIAQTRPELAARIFMVAIEEANGKHVGLTDMMVRWANEDPYLAPKHGYKGETPSDLGFDAKYHVDLGEHYADFKQWLETSQSNGLLSKATLDESTKTVHLGYSYQELQDLTGAESVQMAFYFLKEAAKKADPISGDSAEMILLKKFADQSYLSQLDSDRMDQIEGIYRSSHETDIDAWDRRYSGTGYDELTNKLASATGVDEQLAVLLDDRKGLLIGEVHGSDVNGLRFVNEQMDALKKQGVTVIGLEHLRSDLAQPLIDRYLATGVMSSELSAMLKTKHLDVTLFENARANGMRIVALDANSSARPNVQGTEHGLMYRAGAANNIAVEVLQNLPDGEKFVAIYGKAHLQSHKGIEGFVPGITHRLDLPALKVSDSNQFTVEQDDVSLRVVYDDVANKPKITFKGSL
For B1, in data set [1], the “in vitro cleavage with varying concentrations of EDTA, equimolar 10 µM, 30 minutes at 37 C” value was “Cleavage was still observed”; the “in vitro cleavage with varying concentrations of phenanthroline, equimolar 10 µM, 30 minutes at 37 C” value is “Cleavage was still observed”; the “in vitro endopeptidase assay, SDS-PAGE” value is “showed the cleavage of rKRas, rHRas, and rNRas by rDUF5Vv”; the “in-vitro cleavage reaction of purified proteins” value is “rKRas was efficiently cleaved within 10 min in a concentration-dependent manner”. In data set [2], the “in-vitro cleavage of GST-fusion GTPases” value is “Rit2 was not cleaved at all”. Moreover, the “in vitro cleavage of rGST-GTPase, SDS-PAGE” value in data set [3] was “DUF5Vv could cleave only HRas”. In data set [4], the “in vitro endopeptidase assay, SDS-PAGE” value was “The cleavage of rNRas was less efficient compared to rKRas and rHRas”. Also, in data set [5], the “in vitro endopeptidase assay, SDS-PAGE” value was “showed the cleavage of rKRas, rHRas, and rNRas by rDUF5Vv”.

B2: Recombinant 6xHis-tagged DUF5Ah (A. hydrophila ATCC7966 MARTXAh P3069-V3570) (protein)
chain: PGKTGVTERTARLFADVYSPDELKKAAQVFAKPIGESYQQILDQLATLHGASGQAKVEAALRLNNLIDDYLVKHEGSGRNPALSKLQSQLHGNLYRGELASLQAEVTALAKTRPDLAAIVIGKAAEEAQGQHPGLTQMVLRWAAQDPYLAAKAGYQGVVPADLPFDARFHIALGEQHDDLKKWLTEAQGKGLLNRAVLDDTRKVLHLGYSYQELQDMTGEQSAQMAVYFIKEAAKQAAPGSELSAELIMLDKFGDRRYLGELESRRIAQIENIYHSSKQTDVAAWDARYGGDALRTLNNQLDGESTLAGQLSRLLDNRNGLLIGETHGSDVNGLRFVNEQMDALKIQGVTVIALEHLRSELAQPLIDRYLAGGEMSPELTSMLKNKHLEPSLFERARERGMRIVALDDGSTARPAIAGTEHGLMYRAGAANNVAVEVLGKLPAGEKFVAIYGSAHLGSHKGIEGFVPGITHRLGLPALKVDADNRFHLQADDVSQRVEYADVGRKWTPVAAL
Turning to B2, the “in vitro cleavage, SDS-PAGE” value in data set [1] is “The recombinant protein rDUF5Ah was able to cleave rKRas in the in vitro reaction”.

B3: Recombinant 6xHis-tagged DUF5Pa (P. asymbiotica ATCC43949 hypothetical protein, P41-V532) (protein)
chain: MVFEHDKTVERKRKPSIQLGNDKEKSSEQALELPQSKQNNPLLHDLITSNNLRKEAAVFAKQIGPSYQGILDGLEHLHNLSGNEQLTAGFELHRRITRYLEEHPDSKRNAALRRTQTQLGDLMFTGTLQEVRHPLLEMAETRPAMASQIYQIARDEAKGNTPGLTDLMVRWVKEDPYLAAKSGYQGKIPNDLPFEPKFHVELGDQFGEFKTWLDTAQNQGLLTHTRLDEQNKQVHLGYSYNELLDMTGGVESVKMAVYFLKEAAKQAEPGSAKSQEAILLNRFANPAYLTQLEQGRLAQMEAIYHSSHNTDVAAWDQQFSPDALTQFNHQLDNSVDLNSQLSFLLKDRQGLLIGESHGSDLNGLRFVEEQMDALKAHGVTVIGLEHLRSDLAQPLIDKFLTSENEPMPAELAAMLKTKHLSVNLFEQARSKQMKIIALDNNSTTRPAEGEHSLMYRAGAANNVAVERLQQLPAEEKFVAIYGNAHLQSHEGIDHFLPGITHRLGLPALKVDENNRFTAQADNINQRKCYDDVVEVSRIQLTS
In the case of B3, the “in vitro cleavage, SDS-PAGE” value in data set [1] was “shown to also cleave rKRas”.
